# B1: mRNA-splicing (parent)
# chain: AGUUGCUGCUGGGAGCUCCAGCACAGUGAAAUGGACAGAAGGGCAGAGCAA
# Variants of: B1
# Experiment: exon inclusion enrichment index; higher = more inclusion; WT1 exon 5 minigene, HEK293
row,Variant,exon inclusion enrichment index
1,U3G U4A C6A U7C C9A U10C,1.52
2,U4C G5C C6U U7A G8U C9A,0.704
3,G2C G5A C6G U7G C9A,0.0065
4,U4C G5C C6U G8C C9U U10C,2.17
5,U3C U4G G5C C6A U7C G8A U10A,0.239
6,U4G C6U G8C C9U U10C,0.778
7,U3G U4G G5A C6U U7A G8U C9A,0.0433
8,U3G U4G G5A U7C G8A U10C,1.93
9,U3A U4C C6A U7A C9A U10A,1.27
10,U3G G5U G8U C9U,0.0452
11,G2C U3C G5C C6A U7C G8A U10A,0.119
12,U4A G5C C6G U7G C9A,0.594
13,G2U C6A U7C C9A U10C,4.3
14,U3G U4A G5A U7C G8A U10C,2.25
15,G2A U3C G5A C6U U7A G8U C9A,0.0801
16,G2A G5C C6A U7C G8A U10A,0.316
17,U3A U4G G5C C6G U7C U10C,1.31
18,G2U U3C C6A U7A C9A U10A,2.31
19,U3A U4G C6A U7A C9A U10A,0.245
20,G2A U3A G5A C6G U7G C9A,0.00701
21,U3G U4A G5U G8U C9U,0.0683
22,U3C U4A G5A C6G U7G C9A,0.0853
23,U3G U4C G5C C6A U7C G8A U10A,0.139
24,U3C U4A G5C C6A U7C G8A U10A,0.0745

row,Variant,exon inclusion enrichment index
1,U3C C6A U7A C9A U10A,1.1
2,G2U U3C C6A U7C C9A U10C,4.67
3,U3A G5C C6A U7C G8A U10A,0.475
4,G2U U3G G5A C6U U7A G8U C9A,0.348
5,G2C U3G G5A U7C G8A U10C,2.64
6,U3G U4C G5A C6G U7G C9A,0.0394
7,U3C U4G G5U G8U C9U,0.61
8,G2A C6A U7A C9A U10A,0.929
9,U3C U4G C6A U7C C9A U10C,2.89
10,U3A U4C G5C C6U G8C C9U U10C,2.23
11,U3G U4A C6A U7A C9A U10A,0.213
12,G2C U3G G5C C6G U7C U10C,2.57
13,U3G G5C C6G U7C U10C,1.32
14,G2A G5A C6U U7A G8U C9A,0.211
15,U4A C6U U7A G8U C9A,0.00525
16,U3C U4C G5C C6U G8C C9U U10C,0.521
17,U3C G5C C6A U7C G8A U10A,0.0284
18,U4C C6A U7A C9A U10A,1.51
19,U3A U4A,0.0787
20,U3A U4G,0.0422
21,U3A U4C,0.355
22,G2A U3G G5A C6U U7A G8U C9A,0.0498
23,U3C U4G G5C C6U G8C C9U U10C,1.28
24,U4A C6A U7C C9A U10C,1.35

row,Variant,exon inclusion enrichment index
1,U4G C6A U7C G8A U10A,0.348
2,G2A U3G G5U G8U C9U,0.0993
3,G2U G5A U7C G8A U10C,3.56
4,G2U U3A G5U G8U C9U,0.51
5,G2U G5C C6U G8C C9U U10C,3.26
6,U4C G5U C6A U7C G8A U10A,0.501
7,U4G C6G U7C U10C,0.838
8,U3C G5C C6U G8C C9U U10C,0.338
9,U4C C6G U7G C9A,0.355
10,G2U U3G C6A U7A C9A U10A,2.07
11,G2U U3C G5U G8U C9U,0.965
12,U4C G5C,0.153
13,U4C G5U,0.105
14,U4C G5A,0.0447
15,G2C U3A G5C C6A U7C G8A U10A,0.0802
16,U4C G5U C6U U7A G8U C9A,0.269
17,G2A U3C,0.0113
18,G2A U3G,0.0392
19,G2A U3A,0.0502
20,U4A G5C U7C G8A U10C,2.34
21,U3C U4G C6A U7A C9A U10A,0.667
22,U4G C6A U7C C9A U10C,2.45
23,G2A U3A G5C C6G U7C U10C,3.39
24,G2A U3A G5A C6U U7A G8U C9A,0.0687

row,Variant,exon inclusion enrichment index
1,G2A U3A G5A U7C G8A U10C,2.08
2,G2U U3C G5A C6G U7G C9A,0.0791
3,G2C U3A G5C C6U G8C C9U U10C,1.71
4,U4C G5A C6A U7C G8A U10A,0.437
5,G2C U3C G5C C6G U7C U10C,3.45
6,U3A G5A U7C G8A U10C,3.2
7,U4C U7C G8A U10C,3.91
8,U3A U4A G5A U7C G8A U10C,2.15
9,G2A U3A C6A U7A C9A U10A,0.777
10,G2U U3G G5C C6A U7C G8A U10A,0.503
11,G2U U3A C6A U7C C9A U10C,4.33
12,U4A G5U G8U C9U,0.252
13,G2A U3C C6A U7C C9A U10C,3.17
14,U3G G5A C6U U7A G8U C9A,0.0113
15,G2A G5U G8U C9U,0.53
16,U3A U4C G5C C6G U7C U10C,3.45
17,U3G U4G,0.00805
18,U3G U4A,0.0184
19,U3G U4C,0.16
20,U3A U4G G5U G8U C9U,0.143
21,G2C U3A G5A C6U U7A G8U C9A,0.0584
22,G2U U3C G5C C6G U7C U10C,5.85
23,G2A,0.419
24,G2C,0.141

row,Variant,exon inclusion enrichment index
1,G2U,0.476
2,U3A U4G G5C C6U G8C C9U U10C,0.155
3,G2A U3A C6A U7C C9A U10C,2.68
4,U4A G5A C6A U7C G8A U10A,0.0681
5,U3A U4A G5U G8U C9U,0.296
6,U4A G5C C6A U7C C9A U10C,2.5
7,U3G G5C C6A U7C G8A U10A,0.043
8,U3C U4C G5U G8U C9U,0.335
9,G2C U3A G5C C6G U7C U10C,3.34
10,U3G G5A C6G U7G C9A,0.0125
11,U4A G5A G8U C9U,0.144
12,U4A C6G U7G C9A,0.00639
13,U3G U4G G5C C6U G8C C9U U10C,0.152
14,G2C G5A U7C G8A U10C,2
15,U4A C6U G8C C9U U10C,0.0827
16,U4C G5C G8U C9U,0.112
17,G2C G5U G8U C9U,0.122
18,U4C G5A C6G U7C U10C,3.53
19,U4A G5C C6U U7A G8U C9A,0.177
20,G2A U3A G5U G8U C9U,0.155
21,U3C U4C C6A U7C C9A U10C,4.17
22,U4C G5U G8U C9U,0.371
23,G2A C6A U7C C9A U10C,4.19
24,U3G C6A U7A C9A U10A,0.238

row,Variant,exon inclusion enrichment index
1,U3A U4G G5A C6G U7G C9A,0.018
2,G2A G5C C6G U7C U10C,3.98
3,G2U G5A C6G U7G C9A,0.0266
4,U4G G5A,0.101
5,U4C G5C C6G U7G C9A,2.21
6,U4C G5U C6G U7C U10C,4.01
7,G2U G5C C6G U7C U10C,4.96
8,U3G U4A G5C C6A U7C G8A U10A,0.0657
9,G2C C6A U7C C9A U10C,2.9
10,G2C U3A C6A U7A C9A U10A,0.863
11,U4G G5A C6A U7C C9A U10C,3.42
12,U4G G5A C6A U7A C9A U10A,0.315
13,U4G,0.0792
14,U4C,0.365
15,U4A,0.00347
16,G2U U3A G5C C6U G8C C9U U10C,3.36
17,G2A U3C G5A U7C G8A U10C,2.1
18,U3G U4G G5C C6A U7C G8A U10A,0.0147
19,U4G G5A C6A U7C G8A U10A,0.403
20,U3A U4C G5U G8U C9U,0.407
21,U3C,0.011
22,U3A,0.364
23,U3G,0.0194
24,G2A U3C C6A U7A C9A U10A,0.648

row,Variant,exon inclusion enrichment index
1,G2C U3C C6A U7A C9A U10A,0.779
2,G2U U3G G5A C6G U7G C9A,0.0222
3,U4A G8U C9U,0.0172
4,U3G U4G G5C C6G U7C U10C,0.836
5,G2C U3C G5U G8U C9U,0.29
6,G2A U3C G5U G8U C9U,0.198
7,G2A U3C G5C C6U G8C C9U U10C,2.03
8,U3G C6A U7C C9A U10C,0.785
9,G2C G5C C6G U7C U10C,2.87
10,G2U U3G G5C C6U G8C C9U U10C,3.99
11,G2U U3A G5A U7C G8A U10C,3.36
12,U4C G5A C6G U7G C9A,0.0522
13,U3C U4A G5A C6U U7A G8U C9A,0.17
14,U3C C6A U7C C9A U10C,3.44
15,U4A C6A U7C G8A U10A,0.0102
16,U3A U4A G5C C6G U7C U10C,3.05
17,U4A G5U C6A U7A C9A U10A,0.0651
18,U4A G5C C6G U7C U10C,2.75
19,U3A U4G G5A C6U U7A G8U C9A,0.0692
20,U4A G5A U7C G8A U10C,2
21,U4C G5C C6G U7C U10C,3.81
22,U4C C6G U7C U10C,3.95
23,G2A G5C C6U G8C C9U U10C,2.9
